Several values for one entry are separate records, joined by “and”; a condition that tells them apart may be missing. Equal values may be shown once.
Molecular target: T1, CRF2-4/IL-22RA heterodimeric receptor on BaF3/CRF2-4/IL-22RA cells (human, UniProt Q08334 20-325, limits assumed)
T1 sequence 1: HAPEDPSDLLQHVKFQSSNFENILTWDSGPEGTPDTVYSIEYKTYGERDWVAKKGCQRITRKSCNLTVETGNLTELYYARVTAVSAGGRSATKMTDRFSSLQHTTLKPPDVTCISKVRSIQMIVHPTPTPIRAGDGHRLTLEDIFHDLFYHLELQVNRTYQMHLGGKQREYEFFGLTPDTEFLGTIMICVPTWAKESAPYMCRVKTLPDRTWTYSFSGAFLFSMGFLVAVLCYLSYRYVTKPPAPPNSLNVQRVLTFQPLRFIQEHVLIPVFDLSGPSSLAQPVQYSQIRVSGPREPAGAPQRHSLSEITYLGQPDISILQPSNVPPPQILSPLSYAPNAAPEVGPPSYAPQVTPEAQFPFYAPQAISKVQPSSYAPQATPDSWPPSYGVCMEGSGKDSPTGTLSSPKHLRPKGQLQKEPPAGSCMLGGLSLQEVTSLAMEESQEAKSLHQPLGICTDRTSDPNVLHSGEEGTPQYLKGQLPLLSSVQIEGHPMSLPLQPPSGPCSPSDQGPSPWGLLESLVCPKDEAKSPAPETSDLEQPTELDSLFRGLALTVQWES
T1 sequence 2: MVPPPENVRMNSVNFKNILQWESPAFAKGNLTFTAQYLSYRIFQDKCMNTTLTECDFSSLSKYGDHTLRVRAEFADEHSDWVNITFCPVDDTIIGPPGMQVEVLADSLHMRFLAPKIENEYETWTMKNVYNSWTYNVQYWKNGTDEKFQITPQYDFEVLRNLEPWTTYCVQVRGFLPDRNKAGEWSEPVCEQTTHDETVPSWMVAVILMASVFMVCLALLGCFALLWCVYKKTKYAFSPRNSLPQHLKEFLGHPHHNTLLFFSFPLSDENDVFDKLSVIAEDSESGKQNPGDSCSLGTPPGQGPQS
Assay: cell-based or functional assay

B1: IL-22-CEE (human IL-22 polypeptide with C-terminal GluGlu (EE) tag, purified from BHK 570 cells) (ligand)
chain: LLLALLVQGGAAAPISSHCRLDKSNFQQPYITNRTFMLAKEASLADNNTDVRLIGEKLFHGVSMSERCYLMKQVLNFTLEEVLFPQSDRFQPYMQEVVPFLARLSNRLSTCHIEGDDLHIQRNVQKLKDTVKKLGESGEIKAIGELEYMPME
- proliferation of BaF3/CRF2-4/IL-22RA cells (Alamar Blue): ~15 fold over background and 2 fold induction
